Measurements from publication PMC7949148.

How the values were obtained:
[1] = molecular target: Trypanosoma brucei FoF1–ATP synthase complex (Trypanosoma brucei (endogenous in PCF and BSF cells)); test: native gel or EMSA; blue native electrophoresis of DDM-lysed (2% PCF, 4% BSF) mitochondria, 3 to 12% native gradient gel, 4 °C; Western blot with antibodies against subunit β and Tb2; cells noninduced or with Tb1 or OSCP silenced or ablated
[2] = molecular target: Trypanosoma brucei FoF1–ATP synthase complex (Trypanosoma brucei (endogenous in PCF and BSF cells)); test: native gel or EMSA; high-resolution clear native electrophoresis of digitonin-lysed (4 mg/mg protein) crude mitochondrial vesicles from PCF and BSF parasites, 3 to 12% native gradient gel, 4 °C; Western blot with antibodies against p18 and Tb1

Question: Which stoichiometry N [1] does the source give for “Trypanosoma brucei FoF1–ATP synthase complex” here?
Answer: The stoichiometry N was 2.

Question: And the stoichiometry N [2]?
Answer: The stoichiometry N was 2.
